In US8143025B2, “Antibodies against vascular endothelial growth factor receptor-1” (ImClone LLC, priority 2004, dated 2012):

Assays:
[1] = biological target: human VEGFR-2 alkaline phosphatase (Homo sapiens, UniProt P35968); assay: ELISA-based specificity assay (Example 2A); type: binding; conditions: FIG. 6C
Method: (§1) To determine the specificity of an anti-VEGFR-1 monoclonal antibody to human VEGFR-I, purified antibodies 18F1 were tested in an ELISA-based assay. One μg/ml of recombinant human VEGFR-I Fc, mouse VEGFR-I Fc, mouse VEGFR-2 Fe, or human VEGFR-2 alkaline phosphatase was coated with PBS in a 96-well microtiter plates at 4° C. over night. After wash, the receptor coated plates were blocked with PBS containing 5% Dry Milk and 0.05% Tween 20. Serial dilutions of primary antibody 18F1 to human VEGFR-I, MF1 to mouse VEGFR-I. ICl 1 to human VEGFR-2, or DClOl to mouse VEGFR-2 were incubated in the receptor-coated plates for 30 minutes. After wash secondary anti-primary HRP conjugate antibodies was incubated in the plates for 30 minutes. Plates were washed and incubated with the substrate TMB (3,3′,5,5′-tetra-methylbenzidine) for color development. The absorbance at 450 nm was read as OD values for quantification of binding activity of antibodies. Data were analyzed using a GraphPad Prism Software.

mouse VEGFR-2 = mouse VEGFR-2 (Mus musculus, UniProt P35918); assay: ELISA-based specificity assay (Example 2A); type: binding; conditions: FIG. 6D
Method: as §1

mouse VEGFR-I Fc = biological target: T1, mouse VEGFR-I Fc (Mus musculus, UniProt P35969); assay: ELISA-based specificity assay (Example 2A); type: binding; conditions: FIG. 6B
T1 sequence (P35969 23-759 limits assumed): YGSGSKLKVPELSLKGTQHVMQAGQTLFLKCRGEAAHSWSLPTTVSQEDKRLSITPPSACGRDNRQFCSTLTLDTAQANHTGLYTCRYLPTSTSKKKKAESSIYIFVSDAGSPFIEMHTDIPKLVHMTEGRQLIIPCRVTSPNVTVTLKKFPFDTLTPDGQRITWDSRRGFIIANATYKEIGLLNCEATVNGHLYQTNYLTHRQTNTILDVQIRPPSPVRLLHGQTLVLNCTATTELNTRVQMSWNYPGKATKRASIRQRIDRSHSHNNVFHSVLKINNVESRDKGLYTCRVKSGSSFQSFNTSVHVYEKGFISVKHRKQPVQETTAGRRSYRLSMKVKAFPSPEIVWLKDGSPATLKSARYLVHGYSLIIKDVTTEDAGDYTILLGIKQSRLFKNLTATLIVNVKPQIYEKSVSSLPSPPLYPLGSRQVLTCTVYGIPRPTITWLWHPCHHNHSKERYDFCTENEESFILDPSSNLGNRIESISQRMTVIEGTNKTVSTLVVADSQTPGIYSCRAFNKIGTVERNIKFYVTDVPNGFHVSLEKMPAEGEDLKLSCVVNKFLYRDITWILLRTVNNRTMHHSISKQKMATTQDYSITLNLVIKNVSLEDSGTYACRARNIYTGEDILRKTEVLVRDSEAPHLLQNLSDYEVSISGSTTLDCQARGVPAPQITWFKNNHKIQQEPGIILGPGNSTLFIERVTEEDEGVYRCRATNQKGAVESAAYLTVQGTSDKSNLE
Method: as §1

[2] = biological target: T2, recombinant human VEGFR-I Fc (Homo sapiens, UniProt P17948); assay: ELISA-based specificity assay (Example 2A); type: binding; conditions: FIG. 6A
T2 construct: soluble recombinant VEGFR-I Fc (rhuVEGFR-1 Fc) proteins were purchased from (R&D Systems Inc); purchased R&D Systems Inc
Method: as §1

[3] = biological target: T3, native VEGFR-I on PAE-VEGFR-I cells (Homo sapiens, UniProt P17948); assay: Flow cytometry analysis, PAE-VEGFR-I cells; type: binding; conditions: FIG. 7
T3 construct: host or cells: porcine aorta endothelial (PAE) cells
Method: Aliquots of 10^6PAE-VEGFR-I cells were harvested from subconfluent cultures and incubated with anti-VEGFR-I antibody clones 6F9, 13G12, F11, and 18F1 in PBS with 1% bovine serum albumin (BSA) and 0.02% sodium azide (staining buffer) for one hour on ice. Aliquots of 10^6DU4475 human breast carcinoma cells were harvested from subconfluent cultures and incubated with anti-VEGFR-1 antibody clone 18F1 in PBS with 1% bovine serum albumin (BSA) and 0.02% sodium azide (staining buffer) for one hour on ice. A matched IgG isotype (Jackson ImmunoResearch, West Grove, Pa.) was used as a negative control. Cells were washed twice with flow buffer and then incubated with a fluorescein isothiocyanate (FITC)-labeled goat anti-human IgG antibody (BioSource International, Camarillo, Calif.) in staining buffer for 30 minutes on ice. Cells were washed as above and analyzed on an Epics XL flow cytometer (Beckman-Coulter, Hialeah, Fla.). Dead cells and debris were eliminated from the analysis on the basis of forward and sideways light scatter. The mean fluorescent intensity units (MFRJ) were calculated as the mean log fluorescence multiplied by the percentage of positive population.

DLD-I xenograft = assay: DLD-I colon cancer xenograft; type: in vivo, mouse; conditions: monotherapy, FIG. 26B
Method: Female athymic nu/nu mice, 6-8 weeks of age, were injected subcutaneously on the lateral dorsal surface with 0.4 mL volume of a suspension containing a human tumor cell line in media, diluted 1:1 with MATRIGEL™ (BD Biosciences). The cell lines used in xenograft models, with the cell doses indicated in parenthesis (10^6 cells/mouse), were: human colon carcinoma cell lines DLD-I (5), GEO (5) and HT-29 (5); human breast carcinoma cell lines DU4475 (2), MDA-MB-231 (5), MDA-MB-435 (5), and BT474 (5). When tumors reached approximately 200-300 mm^3, mice were randomized by tumor size and divided into treatment groups. Tumor growth was evaluated approximately twice weekly, with tumor volume calculated as π/6* (Length*Width^2), where Length=longest diameter and Width=diameter perpendicular to Length. Tumor dimensions were measured with calipers. T/C % was calculated as 100*(Final Treatment Tumor Volume/Initial Treatment Tumor Volume)/(Final Control Tumor Volume/Initial Control Tumor Volume).
18F1 was diluted in 0.9% USP saline (Braun) or phosphate buffered saline (PBS) and administered intraperitoneally in a volume of 0.5 mL per mouse. The effect of treatment on tumor growth was analyzed using repeated measures analysis of variance (RM ANOVA), p<0.05 was considered significant.

Sequence of mouse VEGFR-2 (P35918 20-762 limits assumed): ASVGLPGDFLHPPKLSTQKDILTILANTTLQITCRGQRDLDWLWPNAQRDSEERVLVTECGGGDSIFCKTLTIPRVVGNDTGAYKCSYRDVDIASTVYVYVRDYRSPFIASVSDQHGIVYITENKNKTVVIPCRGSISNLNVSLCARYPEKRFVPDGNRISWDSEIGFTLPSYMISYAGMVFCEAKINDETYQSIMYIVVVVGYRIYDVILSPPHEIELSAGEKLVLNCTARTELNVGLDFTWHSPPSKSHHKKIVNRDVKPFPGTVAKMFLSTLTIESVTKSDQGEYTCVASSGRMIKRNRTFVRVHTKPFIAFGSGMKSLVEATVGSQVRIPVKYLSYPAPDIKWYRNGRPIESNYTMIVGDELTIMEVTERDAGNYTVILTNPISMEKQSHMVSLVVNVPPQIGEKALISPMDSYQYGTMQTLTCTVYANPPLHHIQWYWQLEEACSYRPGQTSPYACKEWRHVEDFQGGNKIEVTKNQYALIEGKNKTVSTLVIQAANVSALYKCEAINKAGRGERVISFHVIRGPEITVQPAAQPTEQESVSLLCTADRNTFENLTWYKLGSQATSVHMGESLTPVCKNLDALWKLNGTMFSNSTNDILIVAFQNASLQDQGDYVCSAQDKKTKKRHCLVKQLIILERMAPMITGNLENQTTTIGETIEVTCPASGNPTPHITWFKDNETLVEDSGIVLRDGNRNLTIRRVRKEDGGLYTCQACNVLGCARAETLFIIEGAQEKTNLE
T2 sequence (P17948 27-758 limits assumed): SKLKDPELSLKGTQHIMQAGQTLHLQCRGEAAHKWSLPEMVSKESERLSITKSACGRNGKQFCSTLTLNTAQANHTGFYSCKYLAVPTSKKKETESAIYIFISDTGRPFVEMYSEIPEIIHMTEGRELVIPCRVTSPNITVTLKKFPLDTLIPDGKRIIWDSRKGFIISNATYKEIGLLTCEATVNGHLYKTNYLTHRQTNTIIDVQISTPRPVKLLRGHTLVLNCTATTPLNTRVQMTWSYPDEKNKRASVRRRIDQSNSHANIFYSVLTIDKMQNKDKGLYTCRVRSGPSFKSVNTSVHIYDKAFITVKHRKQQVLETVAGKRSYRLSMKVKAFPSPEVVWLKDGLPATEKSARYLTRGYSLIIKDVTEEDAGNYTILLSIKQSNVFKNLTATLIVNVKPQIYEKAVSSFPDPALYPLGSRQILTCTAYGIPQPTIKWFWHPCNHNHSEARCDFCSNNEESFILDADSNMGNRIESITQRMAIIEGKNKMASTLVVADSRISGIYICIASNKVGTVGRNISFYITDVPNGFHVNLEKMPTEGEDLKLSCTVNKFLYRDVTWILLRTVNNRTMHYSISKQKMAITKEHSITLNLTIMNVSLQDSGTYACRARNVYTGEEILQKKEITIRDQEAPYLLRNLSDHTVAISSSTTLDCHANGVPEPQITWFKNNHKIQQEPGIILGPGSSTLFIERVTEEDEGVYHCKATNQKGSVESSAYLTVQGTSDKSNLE
T3 sequence (P17948 27-1338): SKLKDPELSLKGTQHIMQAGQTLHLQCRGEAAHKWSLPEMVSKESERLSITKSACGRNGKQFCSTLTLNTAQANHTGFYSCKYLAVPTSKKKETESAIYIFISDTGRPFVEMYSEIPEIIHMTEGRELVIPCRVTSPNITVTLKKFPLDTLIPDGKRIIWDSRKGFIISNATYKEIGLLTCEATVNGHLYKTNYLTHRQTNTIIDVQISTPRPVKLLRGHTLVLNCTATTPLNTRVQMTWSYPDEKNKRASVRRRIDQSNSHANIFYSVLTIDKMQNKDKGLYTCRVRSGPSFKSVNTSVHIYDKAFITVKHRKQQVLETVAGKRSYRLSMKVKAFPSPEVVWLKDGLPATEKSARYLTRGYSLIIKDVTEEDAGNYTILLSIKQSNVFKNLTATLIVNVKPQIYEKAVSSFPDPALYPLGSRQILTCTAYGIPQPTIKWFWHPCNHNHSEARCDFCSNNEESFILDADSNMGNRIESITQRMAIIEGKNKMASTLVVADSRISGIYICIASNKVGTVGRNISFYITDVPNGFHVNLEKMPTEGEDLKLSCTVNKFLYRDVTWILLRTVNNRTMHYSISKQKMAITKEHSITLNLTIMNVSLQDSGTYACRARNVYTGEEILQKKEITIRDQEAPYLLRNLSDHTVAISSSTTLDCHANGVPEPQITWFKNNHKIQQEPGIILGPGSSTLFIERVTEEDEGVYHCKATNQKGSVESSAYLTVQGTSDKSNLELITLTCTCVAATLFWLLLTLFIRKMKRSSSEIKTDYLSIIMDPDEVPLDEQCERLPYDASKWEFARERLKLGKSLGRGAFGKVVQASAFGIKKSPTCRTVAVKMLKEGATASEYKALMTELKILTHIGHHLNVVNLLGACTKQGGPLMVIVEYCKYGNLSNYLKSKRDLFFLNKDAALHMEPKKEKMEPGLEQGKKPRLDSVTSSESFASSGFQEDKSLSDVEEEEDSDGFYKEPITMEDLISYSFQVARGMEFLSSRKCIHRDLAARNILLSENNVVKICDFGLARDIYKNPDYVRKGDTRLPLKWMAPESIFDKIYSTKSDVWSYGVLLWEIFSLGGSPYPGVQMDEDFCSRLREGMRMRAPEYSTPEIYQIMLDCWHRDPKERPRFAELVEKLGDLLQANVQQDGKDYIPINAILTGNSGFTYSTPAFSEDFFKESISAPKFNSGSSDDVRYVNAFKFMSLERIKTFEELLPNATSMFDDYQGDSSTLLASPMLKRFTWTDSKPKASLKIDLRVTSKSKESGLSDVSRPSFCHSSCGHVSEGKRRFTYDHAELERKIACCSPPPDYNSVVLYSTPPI
Sequence of human VEGFR-2 alkaline phosphatase (P35968 20-764 limits assumed): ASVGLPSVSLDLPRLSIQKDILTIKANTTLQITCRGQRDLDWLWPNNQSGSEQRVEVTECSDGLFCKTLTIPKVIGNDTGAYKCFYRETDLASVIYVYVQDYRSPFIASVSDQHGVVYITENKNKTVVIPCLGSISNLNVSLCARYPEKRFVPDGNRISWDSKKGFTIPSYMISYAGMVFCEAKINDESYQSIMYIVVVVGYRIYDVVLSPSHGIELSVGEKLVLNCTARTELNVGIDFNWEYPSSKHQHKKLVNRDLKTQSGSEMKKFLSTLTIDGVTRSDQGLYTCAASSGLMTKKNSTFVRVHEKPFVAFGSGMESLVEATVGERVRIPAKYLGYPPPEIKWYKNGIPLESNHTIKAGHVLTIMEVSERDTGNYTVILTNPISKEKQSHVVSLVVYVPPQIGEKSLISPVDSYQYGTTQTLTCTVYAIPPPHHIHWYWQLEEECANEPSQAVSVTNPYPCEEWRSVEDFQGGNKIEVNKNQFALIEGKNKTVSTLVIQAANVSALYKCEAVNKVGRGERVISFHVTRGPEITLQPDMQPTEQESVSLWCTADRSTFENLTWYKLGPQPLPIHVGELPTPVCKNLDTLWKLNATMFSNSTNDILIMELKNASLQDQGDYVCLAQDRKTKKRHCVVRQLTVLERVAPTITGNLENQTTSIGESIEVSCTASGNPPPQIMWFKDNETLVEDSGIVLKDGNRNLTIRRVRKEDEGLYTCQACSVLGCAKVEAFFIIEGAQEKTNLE

cross reactivity with human VEGFR-2 [1]: no cross reactivity | cross reactivity with mouse VEGFR-2 (mouse VEGFR-2): no cross reactivity | cross reactivity with mouse VEGFR-I (mouse VEGFR-I Fc): no cross reactivity | binding specificity to human VEGFR-I [2]: binding of human VEGFR-I | binding reactivity with PAE-VEGFR-I expressing cells [3]: binding reactivity
Substance: 18F1: human anti-VEGFR-1 monoclonal antibody clone; VL SEQ ID NO: 16, VH SEQ ID NO: 20 [Clone 18F1]
antitumor effect against DLD-I colon cancer xenografts (DLD-I xenograft): significant antitumor effect
